Measured values: US20240083971A1, “IMMUNE EFFECTOR CELL COVALENT IMMUNE RECRUITING (CIR) MOLECULES AND METHODS AND USES THEREOF” (McMaster University, priority 2022, published 2024)
Bridges are numbered along the chain shown (N, C = ends). Primed or numbered codes have the meaning given here. Where no end group is shown, it is not given here. [ ]: non-standard residue; d: D form. The star is where a group is joined. Biotin = O=C1N[C@H]2[C@H](CS[C@H]2CCCCC(=O)*)N1; Benzoyl(3-SO2F) = O=C(c1cccc(S(=O)(=O)F)c1)*; Lys(N3) = [N-]=[N+]=NCCCC[C@H](N)C(=O)O; azido = azide group (monovalent —N3); DBCO′ = not defined here; PEG4′ = not defined here

Legend:
[1] = biological target: T1, CD64 (Homo sapiens, UniProt P12314); test: fluorescent SDS-PAGE covalent labelling kinetics of CD64; type: binding; details: 1.6 μM CIR, 800 nM CD64, one-phase association fit
Protocol: Dark bands show A647 fluorescence as measured using the Cy5 channel and represent covalent CIR binding. 1.6 μM of CIR was incubated with 800 nM CD64 for different amounts of time before being run on a SDS-PAGE gel.
The fluorescence intensity of each band in FIG. 17A-17C was measured and then compared to the fluorescence intensity of the band at 100% fraction labelled (where the fluorescence intensity reaches a plateau) to make a fraction bound vs time graph. The curve of the graph was fitted to a one-phase association curve in GraphPad Prism 8 to find the Kobs.
The kinetics of the labelling reaction was also investigated using fluorescent SDS-PAGE gels similar to as described above. 1.6 μM of CIR was incubated with 800 nM CD64 for different amounts of time before being run on a SDS-PAGE gel (FIG. 17). The fluorescence intensity of each band was then measured and then compared to the fluorescence intensity of the band at 100% fraction labelled (where the fluorescence intensity reaches a plateau) to make a fraction bound vs time graph (FIG. 18). The curve of the graph was fitted to a one-phase association curve to find the Kobs.
Target sequence in this assay (P12314 16-374): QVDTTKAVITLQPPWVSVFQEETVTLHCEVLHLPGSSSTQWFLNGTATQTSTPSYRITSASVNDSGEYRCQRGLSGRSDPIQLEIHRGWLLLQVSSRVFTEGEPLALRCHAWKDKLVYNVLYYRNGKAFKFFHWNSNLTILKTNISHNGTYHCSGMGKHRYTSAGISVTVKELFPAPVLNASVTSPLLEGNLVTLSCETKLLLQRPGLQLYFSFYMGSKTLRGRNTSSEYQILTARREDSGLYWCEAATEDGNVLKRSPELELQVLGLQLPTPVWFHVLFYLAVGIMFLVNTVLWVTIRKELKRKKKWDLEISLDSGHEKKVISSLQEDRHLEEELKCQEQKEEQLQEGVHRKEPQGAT

[2] = LC-MS stability in aqueous conditions at room temperature; details: over 27 hours
Protocol: The stability of the three sulfonyl fluoride variants in aqueous conditions at room temperature were then assessed using LC-MS. LC-MS measurements were taken over 27 hours and peaks on the UV chromatogram were monitored for CIR degradation (FIG. 19-21).

[3] = biological target: T2, CD64 on live U937 cells (Homo sapiens, UniProt P12314); test: CIR-biotin labeling of CD64 on live U937 cells detected with streptavidin-PE; type: cell-based; details: 24 hours at 37° C. with IFNγ
T2 construct: endogenous in cells
T2 sequence (P12314 16-374): as above
Protocol: CIR-biotin was incubated with U937 cells for 24 hours at 37° C. along with IFNγ. The cells were then washed and incubated with streptavidin-PE. The streptavidin binds tightly to the biotin on the CIR and the fluorescent PE signal was read. cP33-ct-aryl SuFEx (CT), cP33-int-aryl SuFEx (INT), cP33-nt-aryl SuFEx (NT), and a noncovalent analog were incubated at increasing concentrations.
The ability of the three sulfonyl fluoride CIR variants to label CD64 on the surface of live cells was assayed using CIRs clicked to a biotin handle. CIR-biotin was incubated with U937 cells for 24 hours at 37° C. along with IFNγ. Post reaction, the cells were washed and incubated with streptavidin-PE. The streptavidin binds tightly to the biotin on the CIR and the fluorescent PE signal was read using a BD LSRII flow cytometer (FIG. 24). 100X CIR not labelled with biotin was used as competitor control to assess specificity and covalency (FIG. 25).

[4] = biological target: T1, CD64; test: fluorescent SDS-PAGE covalent labelling specificity of sulfonyl fluoride CIRs (CD64, CD16, BSA); type: binding; details: 1.6 μM CIR-A647, 800 nM protein, 7 hours, room temperature
Protocol: Dark bands show A647 fluorescence as measured using the Cy5 channel and represent covalent CIR binding. For each sample, 1.6 μM CIR clicked to A647 fluorescent dye was incubated with 800 nM of protein for 7 hours.
The specificity of the three sulfonyl fluoride CIR variations for labelling CD64 were investigated using a fluorescent SDS-PAGE assay similar to as described above (FIG. 16). 1.6 μM CIR clicked to A647 fluorescent dye was incubated with 800 nM of protein for 7 hours at room temperature in the dark. Three different proteins were assayed to test specificity: CD64, CD16, and BSA. The samples were then run on a 4-20% gradient acrylamide gel and fluorescence was measured using the Cy5 channel with an Amersham Typhoon biomolecular imager. Only covalently labelled CIR will remain bound to CD64 in SDS-PAGE giving rise to fluorescent bands.
Target sequence in this assay (P12314 16-374): as above

[5] = biological target: T1, CD64; test: Kon (M^-1 s^-1)
Protocol: (§1) Table printed on a drawing sheet, FIG. 8A
Head of the field: Kon (M^-1 s^-1)
(§2) The patent's description of the figure: FIG. 8A-8B depicts results for the CP-33(N-term “Y” insertion mutant). […] (Note: the linker-biotin is attached to the azide; DBCO-Biotin not shown).
(§3) First copying reader's note: The name cp33-nt-tyr is printed with the structure in FIG. 8B on the same sheet; per the description, the BLI kinetics were measured with its linker-biotin conjugate binding to human CD64.
Target sequence in this assay (P12314 16-374 limits assumed): as the sequence (P12314 16-374) above

[6] = biological target: T1, CD64; test: Koff (s^-1)
Protocol: as §1
Target sequence in this assay (P12314 16-374 limits assumed): as the sequence (P12314 16-374) above
Head of the field: Koff (s^-1)
as §2, §3

[7] = biological target: T3, human CD64 (recombinant) (human, UniProt P12314 16-288); test: BLI; 100 nM CD64
T3 chain: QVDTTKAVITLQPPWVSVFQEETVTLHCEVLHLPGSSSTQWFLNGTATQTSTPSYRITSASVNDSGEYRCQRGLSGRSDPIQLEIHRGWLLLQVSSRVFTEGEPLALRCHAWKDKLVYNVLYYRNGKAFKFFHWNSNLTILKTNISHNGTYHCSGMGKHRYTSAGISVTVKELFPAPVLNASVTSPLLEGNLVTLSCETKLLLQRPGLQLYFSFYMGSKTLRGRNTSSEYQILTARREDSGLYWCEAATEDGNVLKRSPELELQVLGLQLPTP

[8] = biological target: T3, human CD64 (recombinant); test: BLI; 12.5 nM CD64
[9] = biological target: T3, human CD64 (recombinant); test: BLI; 25 nM CD64
[10] = biological target: T3, human CD64 (recombinant); test: BLI; 50 nM CD64
[11] = biological target: T3, human CD64 (recombinant); test: BLI
[12] = biological target: T3, human CD64 (recombinant); test: BLI; 50 nM CD64
[13] = biological target: T3, human CD64 (recombinant); test: BLI; 200 nM CD64
[14] = biological target: T3, human CD64 (recombinant); test: BLI; 100 nM CD64
[15] = biological target: T4, human CD64 (recombinant) (human, UniProt P12314 16-288, limits assumed); test: fluorescence SDS-PAGE covalent labelling kinetics, 1.6 µM CIR with 800 nM CD64, one-phase association fit
T4 construct: Recombinant protein in solution, or biotinylated on streptavidin biosensors; Some passages print only 'CD64'; also called huCD64; biotinylated huCD64

Question: For “cP33 ct-aryl SuFEx: cP33 peptide with the sulfonyl fluoride group at the C-terminus; SEQ ID NO: 12 ([Lys(N3)]VNSCLLLPNLLGCDGDK(Benzoyl(3-SO2F)); disulfide 5-14; not fully specified)”, which Kobs [1] is on record?
Answer: 6.7e-05 s⁻¹

Question: What about the “stability in aqueous conditions (degradation peaks in UV trace)” value [2] of the same molecule?
Answer: some slight degradation peaks by 27 hours

Question: And the “covalent labelling of CD64 on live cells (streptavidin-PE signal)” value [3]?
Answer: specific and effective covalent labelling of CD64 on the surface of live cells

Question: And the “covalent labelling preference for CD64 vs CD16 and BSA” value [4]?
Answer: greater binding selectivity compared to the other variants

Question: With “cP33 int-aryl SuFEx: cP33 peptide with the sulfonyl fluoride at an internal position replacing leucine; SEQ ID NO: 14 ([Lys(N3)]VNSCLLLPNK(Benzoyl(3-SO2F))LGCDGD; disulfide 5-14; not fully specified)” as the molecule, how does the Kobs [1] read?
Answer: 9.2e-05 s⁻¹

Question: What about the “stability in aqueous conditions (degradation peaks in UV trace)” value [2] of the same molecule?
Answer: noticeable degradation peaks by 27 hours

Question: Which results are given for CC(=O)N[C@@H](CCCCN=[N+]=[N-])C(=O)NCC(=O)N[C@@H](Cc1ccc(O)cc1)C(=O)N[C@H](C(=O)N[C@@H](CC(N)=O)C(=O)N[C@@H](CO)C(=O)N[C@H]1CSSC[C@@H](C(=O)NCC(=O)N[C@@H](CC(=O)O)C(=O)N[C@@H](CC(=O)O)C(N)=O)NC(=O)CNC(=O)[C@H](CC(C)C)NC(=O)[C@H](CC(C)C)NC(=O)[C@H](CC(N)=O)NC(=O)[C@@H]2CCCN2C(=O)[C@H](CC(C)C)NC(=O)[C@H](CC(C)C)NC(=O)[C@H](CC(C)C)NC1=O)C(C)C [cp33-nt-tyr]?
Answer: kon [5]: 332000 M⁻¹ s⁻¹; koff [6]: 0.00711 s⁻¹

B1: CP-33(C-term "Y" insertion mutant)-linker-biotin conjugate (peptide)
peptide: XVNSCLLLPNLLGCGDDY
modifications: not fully specified; X1 is K, Ac-K(azido), or absent (azide clicked to DBCO-peg4-biotin); disulfide bond between C5 and C14; C-terminal amidation present or absent
Question: What does the source list for B1?
Answer: Kd [7]: 0.004 µM; Kd [8]: 0.002 µM; Kd [9]: 0.0026 µM; Kd [10]: 0.003 µM

B2: native CP-33-linker-biotin conjugate (peptide)
peptide: {Biotin-PEG4′-DBCO′-azido}-VNSCLLLPNLLGCGDD
modifications: disulfide 4-13; not fully specified
Question: For B2, which Kd [11] is on record?
Answer: 0.056 µM

B3: CP-33(N-term "Y" insertion mutant)-linker-biotin conjugate (peptide)
peptide: XGYVNSCLLLPNLLGCGDD
modifications: not fully specified; X1 is K, Ac-K(azido), or absent (azide clicked to DBCO-peg4-biotin); disulfide bond between C7 and C16; C-terminal amidation present or absent
Question: What does the source list for B3?
Answer: Kd [12]: 0.0179 µM; Kd [13]: 0.0208 µM; Kd [14]: 0.0182 µM

B4: cP33-int-aryl SuFEx (peptide)
peptide: [Lys(N3)]VNSCLLLPNK(Benzoyl(3-SO2F))LGCDGD
modifications: disulfide 5-14; also: X1 azide clicked to DBCO-A647 or DBCO-biotin
Question: Which Kobs [15] does the source give for B4 here?
Answer: 9.2e-05 s⁻¹

B5: cP33-ct-aryl SuFEx (peptide)
peptide: [Lys(N3)]VNSCLLLPNLLGCDGDK(Benzoyl(3-SO2F))
modifications: disulfide 5-14; also: X1 azide clicked to DBCO-A647 or DBCO-biotin
Question: For B5, which Kobs [15] is on record?
Answer: 6.7e-05 s⁻¹
